Assay results taken from patent US8741840B2, “BMP-7 for use in treating neointimal hyperplasia” (Washington University, priority 2008, dated 2014).

What was measured:
[1] = Blood tests: serum biochemical parameters in the various groups of animals; assay type: in vivo, mouse
Experimental: Animals were sacrificed under anesthesia 28 weeks post natal. At the time of sacrifice, blood was taken by intracardiac stab, and the heart and aorta dissected en bloc. The BMP-7 treated group received intraperitoneal injection of BMP-7 10 μg/kg dry weight once weekly in 100 μl vehicle [mannitol (5% w/v), NaAcetate buffer (20 mM, pH 4.0-4.5), sterile water].
Animals were allocated to one of seven CKD high fat fed groups after the second surgery: Other control Groups included LDLR−/− sham operated mice on chow diet, and LDLR−/− mice with CKD on chow diet. C57B16 WT mice fed chow served as the normal benchmark source. […] Group 1 were LDLR−/− mice on the high fat diet sacrificed at 22 weeks. Group 2 were LDLR−/− mice with CKD fed the high fat diet and treated weekly from 22 to 28 weeks with vehicle IP. […] Group 3 was the first treatment group. These were LDLR−/− mice with CKD on high fat diet that received BMP-7 treatment (10 μg/kg IP weekly). Group 4 were LDLR−/− mice with CKD on high fat diet treated with sevelamer CO3 1%. Group 5 were LDLR−/− mice with CKD on high fat diet treated with sevelamer CO3 3%. […] Once the mice were randomized into groups, they were allowed to develop calcification from weeks 14 through weeks 22 post natal. Therapy was initiated at 23 weeks postnatal and continued until week 28 postnatal at which time the mice were examined.
Blood tests: Serum was analyzed on the day of blood draw for blood urea nitrogen [BUN], cholesterol, calcium and phosphate by standard laboratory methods. Before initiation of therapy, blood was obtained through saphenous vein. At the time of sacrifice, blood was obtained through intracardiac stab.

[2] = tested on: LDLR−/− mice with CKD on high fat diet; test: Chemical quantitation of aortic calcium in high fat fed LDLR-/- mice with CKD (treatment study, weeks 22-28); assay type: in vivo, mouse; settings: therapy weeks 22-28 post natal; BMP-7 10 μg/kg IP weekly; CaCO3 or LaCO3 3% in diet (FIG. 1A, FIG. 2)
From the text: At 10 weeks, animals were either continued on this chow diet or initiated on a high cholesterol (0.15%) diet containing 42% calories as fat [Harlan Teklad, Madison Wis., Product No. TD88137].
Induction of CKD: A two-step procedure was utilized to create uremia as previously described. (Davies 2003; Lund, 2004)^19;21 Saphenous vein blood samples were taken 1 week following the second surgery to assess baseline post-surgical renal function. Animals were sacrificed under anesthesia 28 weeks post natal. At the time of sacrifice, blood was taken by intracardiac stab, and the heart and aorta dissected en bloc. The BMP-7 treated group received intraperitoneal injection of BMP-7 10 μg/kg dry weight once weekly in 100 μl vehicle [mannitol (5% w/v), NaAcetate buffer (20 mM, pH 4.0-4.5), sterile water].
Group 1 were LDLR−/− mice on the high fat diet sacrificed at 22 weeks. Group 2 were LDLR−/− mice with CKD fed the high fat diet and treated weekly from 22 to 28 weeks with vehicle IP. […]
Chemical Calcification Quantitation: similar to our previous experimental plans (Davies 2003; Davies 2005).^19;20 Aorta and hearts were dissected at sacrifice, and all extraneous tissue removed by blunt dissection under a dissecting microscope. […]
Mice were treated with 10 mcg/kg BMP-7 injected intraperitoneally once weekly. […] The data are expressed as group mean±SEM, n=4-7.
The data are expressed as group mean±SEM, n=4-5.

hVSMC = test: RT-PCR of contractile VSMC markers in hVSMC; assay type: cell-based, human
Experimental: Cell Culture: Human adult aorta were obtained from seven cadaveric organ donors rejected because of atherosclerosis by Mid-America Transplant Services (St. Louis, Mo.) and enzymatically digested to obtain Human Smooth Muscle Cells (HSMC). Medial tissue was separated from the adventia and intima and digested with collagenase type I (Worthington, Lakewood, N.J.) 2 mg/ml for 1 hr, and washed with Hank's balanced salt solution (HBSS). Further digestion followed with collagenase type II 1 mg/ml (Worthington, Lakewood, N.J.) and elastase 0.25 mg/ml (Worthington, Lakewood, N.J.) for 4 hrs. Cell suspensions were washed twice with HBSS and cultured in T-75 flasks for three weeks in a 95%/5% air/CO2 humidified environment at 37° C. The growth medium used was DMEM containing […] glucose (high glucose), 10% fetal bovine serum (FBS, Atlas, Fort Collins, Colo.), 1 mM sodium pyruvate, 100 units/ml Penicillin and […] Streptomycin (Sigma, St Louis, Mo.). Cell purity was assessed by positive immunostaining for α-smooth muscle actin and calponin and for the absence of von Willebrand factor. In all experimental protocols, cells were seeded at 1×10^5 cells/well in six-well plates. Medium was changed on the first day and every third day thereafter. In all cases, cells used were between passages two and five (Table 3).
RT-PCR: RNA was extracted from cell cultures using RNeasy Mini Kits (Qiagen, Valencia, Calif.). Semi-quantitative RT-PCR was conducted using Roche 1st Strand cDNA Synthesis Kit (Indianapolis, Ind.) and PCR kit from Invitrogen (Grand Island, N.Y.) according to manufacturer's instructions using a two-step method. […] The number of cycles necessary to amplify cDNA but remain within the exponential amplification range was determined for each primer set. […] Genomic contamination was assessed by heat inactivation of the reverse transcriptase prior to RT-PCR. Primers were designed using Vector NTI soft ware (Invitrogen, Grand Island, N.Y.) and optimal conditions for each prime pairs were determined (Table 4). […] The band intensity was analyzed first by scanning the gel on a Typhoon 9410 gel imager (Amersham Biosciences), quantified by using TotalLab software v2003.03 (Nonlinear Dynamics, Durham, N.C.) and normalized for loading by comparison to GAPGH. […]
Expression of contractile VSMC markers in human cells. […] Calponin (Panel A), alpha smooth muscle actin (alpha SMA) (Panel B), heavy chain myosin (MHSCM) (Panel C), and SM22 alpha (Panel D) message levels detected by RT-PCR were low in hVSMC in basal conditions (open bars, Group A) and in the presence of high phosphorus media (black bars, Group B). […] The data in Panels A-D were normalized to the expression level in basal culture conditions and expressed as fold induction, mean±SEM, n=3. […]

[3] = tested on: LDLR−/− high fat fed mice; test: Histology of proximal aorta (alizarin red): calcified atherosclerotic plaques; assay type: in vivo, mouse
From the text: Tissue Preparation: Resected specimens were flash frozen in liquid nitrogen, then divided as follows: the heart, ascending aorta and aortic arch were separated from the descending aorta, and bisected sagittally through the aortic outflow tract. The descending aorta was bisected coronally, approximately halfway along its length. In order to visualize calcification in the tissue sections, Slices (5 μm thick) were cut and stained with von Kossa and Trap staining.
Additional mice were enrolled to the study for qualitative analysis of aortas to quantitate the effects of the treatments, because aortas of the experimental animals were destroyed by the technique of quantifying the aortic calcium content. Vascular calcification was largely aortic atherosclerotic plaque associated (FIG. 3), and punctate calcifications in the tunica media were observed. Panel A: Large lipid laden plaque (between arrows) in proximal aorta of a sham-operated high fat fed LDLR−/− mouse. Thick arrows identify focal calcifications in the base of the plaque. Panel B: A large calcified plaque (between arrows) in the proximal aorta of a CKD high fat fed LDLR−/− mouse. Panel C: A large lipid laden plaque (between arrows) in the proximal aorta of a BMP-7 treated CKD high fat fed LDLR−/− mouse. The stain is alizarin red. Magnification is 400× in A-C.

B1: BMP-7: bone morphogenetic protein-7 (osteogenic protein-1), mineralization-countering morphogen; provided by Johnson and Johnson (protein, listed as Homo sapiens)
chain: STGSKQRSQNRSKTPKNQEALRMANVAENSSSDQRQACKKHELYVSFRDLGWQDWIIAPEGYAAYYCEGECAFPLNSYMNATNHAIVQTLVHFINPETVPKPCCAPTQLNAISVLYFDDSSNVILKKYRNMVVRACGCH
- serum phosphorus / hyperphosphatemia ([1]; CKD high fat fed LDLR-/- mice, treated weeks 22-28 (FIG. 1B, Table 5)): reduced to normal levels
- Phosphorus ([1]; serum, LDLR-/-, fat diet, CKD, 28 weeks post natal, BMP-7 10 μg/kg IP weekly or binder 3% in diet): 6.325 ± .471 mg/dL
- aortic calcium (vascular calcification) versus the 22 week start point [2]: significant reduction of aortic calcification compared to the 22 week start point
- Calponin message level (hVSMC; high phosphorus media plus BMP-7 (FIG. 8A)): induced expression of each of the marker proteins
- alpha smooth muscle actin (alpha SMA) message level (hVSMC; high phosphorus media plus BMP-7 (FIG. 8B)): induced expression of each of the marker proteins
- heavy chain myosin (MHSCM) message level (hVSMC; high phosphorus media plus BMP-7 (FIG. 8C)): induced expression of each of the marker proteins
- SM22 alpha message level (hVSMC; high phosphorus media plus BMP-7 (FIG. 8D)): induced expression of each of the marker proteins
- size of the atherosclerotic lesions ([3]; proximal aorta (FIG. 3)): did not decrease the size of the atherosclerotic lesions
- plaque associated calcium deposition ([3]; proximal aorta, alizarin red stain (FIG. 3)): diminished plaque associated calcium deposition
